Reference: patent US8399201B2, “Polypeptide complex of TRPM8 and calmodulin and its uses thereof” (Janssen Pharmaceutica N.V., priority 2005, dated 2013)
Blank lines part the entries; values can stand above or below the molecule they belong to.

Target: T1, calmodulin (Rattus norvegicus, UniProt P0DP29)
T1 construct: made in house; host or cells: Escherichia coli BL21 (pGEX-4T-1 based plasmid)
Assay: Pull-down of 35S-methionine-labelled TRPM8 fragments on GST-CaM agarose-GSH beads, SDS/PAGE and autoradiography
Format: binding
Parameters: key to Binding (binding activity to calmodulin): (+) binding was detected; (−) no binding was detected
Conditions: for binding to CaM (result in words): TRPM8 fragments, FIG. 1 and FIG. 2; for Binding (binding activity to calmodulin): rat TRPM8 constructs, binding buffer with 2 mM CaCl2, 30 min room temperature
Procedure: ^35S-methionine labelled TRPM8 fragments were synthesized using TnT® T7 Quick Coupled Transcription/Translation System (Promega) following the vendor recommended protocol. Briefly, 10 μl of 0.1 μg/μl pAGA3 based TRPM8 construct (listed in Table 1) was added to 90 μl of TNT Quick Master Mix with 2 μl of [^35S]-methionine (1000 Ci/mmmol at 10 mCi/ml). The reaction mixture was incubated at 30° C. for 90 min. Aliquots of the incubation mixtures were used directly either for analysis by SDS/PAGE to confirm synthesis of proteins of the desired size or for the ability to bind to GST or GST-CaM.
The GST-CaM fusion plasmid was based on pGEX-4T-1 (Amersham Pharmacia). The CaM was fused to the C-terminus of GST. After transformation into Escherichia coli BL21, a single colony was picked and grown in brow medium to OD of 1.0 at 600 nm. The synthesis of the fusion protein was induced with 0.2 mM isopropyl β-D-thiogalactoside (IPTG). After growing 2-3 hours in the presence of IPTG at 27° C., the cells were collected by centrifugation, resuspended in NETN lysis buffer (0.5% Nonidet P-40/1 mM EDTA/20 mM Tris-HCl, pH8.0/100 mM NaCl; 1 ml of buffer per 20 ml of culture), and lysed by sonication. The cell lysate was separated from the cell debris by centrifugation at 10,000 g for 10 min at 4° C. GST-CaM in the cell lysate was adsorbed for 30 min at room temperature to agarose-glutathione (GSH) beads (Amersham Pharmacia) (1 vol. of lysates/1 vol of 50% (vol/vol) slurry of Agarose-GSH beads in NETN). The beads were washed with binding buffer (20 mM Tris-HCl, pH7.5/100 mM NaCl/2 mM CaCl2/0.5% Tween20).
Agarose-GSH beads (50% (vol./vol.)) bound with about 1 μg of GST or GST-CaM were incubated with 10 μl of ^35S-labelled TRPM8 fragment for 30 min at room temperature in a final volume of 200 μl of binding buffer. At the end of the incubation, the beads were washed three times with 1.0 ml of binding buffer and resuspended in 20 μl of 2× laemmli's sample loading buffer. Protein(s) bound to the beads, including the GST-CaM fusion protein, and possibly the ^35S-labelled TRPM8 fragment that interact with the GST-CaM fusion protein, were separated by SDS/PAGE followed by autoradiography.

binding to CaM (result in words): found to bind to CaM
Binding (binding activity to calmodulin): +
B3: TRPM8-1/pAGA3: Rat TRPM8 fragment, residues M1-K432, 432 aa, in vitro translated from pAGA3 (protein)
chain: MSFEGARLSMRSRRNGTLGSTRTLYSSVSRSTDVSYSESDLVNFIQANFKKRECVFFTRDSKAMESICKCGYAQSQHIEGTQINQNEKWNYKKHTKEFPTDAFGDIQFETLGKKGKYLRLSCDTDSETLYELLTQHWHLKTPNLVISVTGGAKNFALKPRMRKIFSRLIYIAQSKGAWILTGGTHYGLMKYIGEVVRDNTISRNSEENIVAIGIAAWGMVSNRDTLIRNCDDEGHFSAQYIMDDFMRDPLYILDNNHTHLLLVDNGCHGHPTVEAKLRNQLEKYISERTSQDSNYGGKIPIVCFAQGGGRETLKAINTSVKSKIPCVVVEGSGQIADVIASLVEVEDVLTSSMVKEKLVRFLPRTVSRLPEEEIESWIKWLKEILESPHLLTVIKMEEAGDEVVSSAISYALYKAFSTNEQDKDNWNGQLKL

binding to CaM (result in words): not
Binding (binding activity to calmodulin): −
B6: TRPM8-2/pAGA3: Rat TRPM8 fragment, residues M353-T690, 337 aa (protein)
chain: MVKEKLVRFLPRTVSRLPEEEIESWIKWLKEILESPHLLTVIKMEEAGDEVVSSAISYALYKAFSTNEQDKDNWNGQLKLLLEWNQLDLASDEIFTNDRRWESADLQEVMFTALIKDRPKFVRLFLENGLNLQKFLTNEVLTELFSTHFSTLVYRNLQIAKNSYNDALLTFVWKLVANFRRSFWKEDRSSREDLDVELHDASLTTRHPLQALFIWAILQNKKELSKVIWEQTKGCTLAALGASKLLKTLAKVKNDINAAGESEELANEYETRAVELFTECYSSDEDLAEQLLVYSCEAWGGSNCLELAVEATDQHFIAQPGVQNFLSKQWYGEISRDT

binding to CaM (result in words): not
Binding (binding activity to calmodulin): −
B7: TRPM8-4/pAGA3: Rat TRPM8 fragment, residues I609-K1104 (end), 495 aa (protein)
chain: NAAGESEELANEYETRAVELFTECYSSDEDLAEQLLVYSCEAWGGSNCLELAVEATDQHFIAQPGVQNFLSKQWYGEISRDTKNWKIILCLFIIPLVGCGLVSFRKKPIDKHKKLLWYYVAFFTSPFVVFSWNVVFYIAFLLLFAYVLLMDFHSVPHTPELILYALVFVLFCDEVRQWYMNGVNYFTDLWNVMDTLGLFYFIAGIVFRLHSSNKSSLYSGRVIFCLDYIIFTLRLIHIFTVSRNLGPKIIMLQRMLIDVFFFLFLFAVWMVAFGVARQGILRQNEQRWRWIFRSVIYEPYLAMFGQVPSDVDSTTYDFSHCTFSGNESKPLCVELDEYNLPRFPEWITIPLVCIYMLSTNILLVNLLVAMFGYTVGIVQENNDQVWKFQRYFLVQEYCNRLNIPFPFVVFAYFYMVVKKCFKCCCKEKNTESSACCFRNEDNETLAWEGVMKENYLVKINTKANDNAEEMRHRFRQLDTKLNDLKGLLKEIANKIK

binding to CaM (result in words): found to bind CaM
Binding (binding activity to calmodulin): +
B8: TRPM8-7/pAGA3: Rat TRPM8 fragment, residues V145-S352, 207 aa (protein)
chain: VISVTGGAKNFALKPRMRKIFSRLIYIAQSKGAWILTGGTHYGLMKYIGEVVRDNTISRNSEENIVAIGIAAWGMVSNRDTLIRNCDDEGHFSAQYIMDDFMRDPLYILDNNHTHLLLVDNGCHGHPTVEAKLRNQLEKYISERTSQDSNYGGKIPIVCFAQGGGRETLKAINTSVKSKIPCVVVEGSGQIADVIASLVEVEDVLTSS

More lines, now with the values behind:

B1: TRPM8-6/pAGA3: Rat TRPM8 fragment, residues M63-S352, 289 aa (protein)
chain: AMESICKCGYAQSQHIEGTQINQNEKWNYKKHTKEFPTDAFGDIQFETLGKKGKYLRLSCDTDSETLYELLTQHWHLKTPNLVISVTGGAKNFALKPRMRKIFSRLIYIAQSKGAWILTGGTHYGLMKYIGEVVRDNTISRNSEENIVAIGIAAWGMVSNRDTLIRNCDDEGHFSAQYIMDDFMRDPLYILDNNHTHLLLVDNGCHGHPTVEAKLRNQLEKYISERTSQDSNYGGKIPIVCFAQGGGRETLKAINTSVKSKIPCVVVEGSGQIADVIASLVEVEDVLTSS
binding to CaM (result in words): found to bind CaM
Binding (binding activity to calmodulin): +

B2: TRPM8-8/pAGA3: Rat TRPM8 fragment, residues M219-S352, 133 aa (protein)
chain: MVSNRDTLIRNCDDEGHFSAQYIMDDFMRDPLYILDNNHTHLLLVDNGCHGHPTVEAKLRNQLEKYISERTSQDSNYGGKIPIVCFAQGGGRETLKAINTSVKSKIPCVVVEGSGQIADVIASLVEVEDVLTSS
Binding (binding activity to calmodulin): −

B4: TRPM8-10/pAGA3: Rat TRPM8 fragment, residues D198-S352, 154 aa (protein)
chain: DNTISRNSEENIVAIGIAAWGMVSNRDTLIRNCDDEGHFSAQYIMDDFMRDPLYILDNNHTHLLLVDNGCHGHPTVEAKLRNQLEKYISERTSQDSNYGGKIPIVCFAQGGGRETLKAINTSVKSKIPCVVVEGSGQIADVIASLVEVEDVLTSS
Binding (binding activity to calmodulin): −

B5: TRPM8-9/pAGA3: Rat TRPM8 fragment, residues A172-S352, 180 aa (protein)
chain: AQSKGAWILTGGTHYGLMKYIGEVVRDNTISRNSEENIVAIGIAAWGMVSNRDTLIRNCDDEGHFSAQYIMDDFMRDPLYILDNNHTHLLLVDNGCHGHPTVEAKLRNQLEKYISERTSQDSNYGGKIPIVCFAQGGGRETLKAINTSVKSKIPCVVVEGSGQIADVIASLVEVEDVLTSS
Binding (binding activity to calmodulin): −
